These are literature values, as cited in PMC3281059.

The target in this series is actin monomer (UniProt P68133).

On to WCA domain WCA (from UniProt O00401), for which the Kd (as a rule, the equilibrium constant for the complex coming apart) was 600 nM.
